Experimental findings from paper PMC3378601 (PLoS Biology, 2012) are described below.

This assay addresses T1, Hsp42, yeast small heat shock protein (yeast, UniProt Q12329 1-375).
T1 construct: Hsp42, small heat shock protein of the yeast cytosol; also called sHsp; source: purified as described [28]; copies: 24
Put plainly: co-sedimentation; preassembled NM fibers (5 µM NM monomer) incubated 60 min at 25°C with Hsp26 or Hsp42 (10 µM); fibers recovered at 16,000 g for 30 min; pellet with or without a wash step, SDS-PAGE, Coomassie. The settings on record: both partners purified.

T1 sequence (Q12329 whole entry): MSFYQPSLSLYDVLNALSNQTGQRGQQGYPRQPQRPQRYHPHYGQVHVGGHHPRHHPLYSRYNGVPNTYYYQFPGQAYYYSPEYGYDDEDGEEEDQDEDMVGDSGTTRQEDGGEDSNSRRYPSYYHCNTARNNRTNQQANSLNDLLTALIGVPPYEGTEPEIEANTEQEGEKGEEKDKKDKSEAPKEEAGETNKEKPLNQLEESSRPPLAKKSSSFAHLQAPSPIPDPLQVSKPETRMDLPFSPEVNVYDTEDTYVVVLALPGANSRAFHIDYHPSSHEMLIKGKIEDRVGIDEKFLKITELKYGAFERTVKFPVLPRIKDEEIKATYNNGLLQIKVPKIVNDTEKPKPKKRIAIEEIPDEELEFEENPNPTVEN

B1: NM, the prion domain (N and M domains) of the yeast translation termination factor Sup35, untagged (domain or fragment, UniProt P05453 1-253, looked up)
chain: MSDSNQGNNQQNYQQYSQNGNQQQGNNRYQGYQAYNAQAQPAGGYYQNYQGYSGYQQGGYQQYNPDAGYQQQYNPQGGYQQYNPQGGYQQQFNPQGGRGNYKNFNYNNNLQGYQAGFQPQSQGMSLNDFQKQQKQAAPKPKKTLKLVSSSGIKLANATKKVGTKPAESDKKEEEKSAETKEPTKEPTKVEEPVKKEEKPVQTEEKTEEKSELPKVEDLKISESTHNTNNANVTSADALIKEQEEEVDDEVVND
notes: Sup35, yeast translation termination factor; N domain (amino acids 1-123) plus M domain (amino acids 124-253) = NM; One construct used in several states: soluble NM, molten oligomers and preassembled amyloid fibers (assembled at 25°C with agitation in assembly buffer); With Hsp26 and Hsp42 it stood as preassembled fibers; also called untagged NM; NM fibers; source: purified as described [48]
In the case of B1, the binding result was “binds”.
